Biological target: GST-SF1KQ (EhSF1 KH-QUA2 domain) (Entamoeba histolytica) (UniProt C4M4V3)
Test: EMSA
Conditions: EMSA: 50 ug protein (Fig 4), 200 fmol probe, 20 min (+10 min with U2 snRNA); binding buffer as in Ortuno-Pineda 2012, not given; UV crosslinking at pH 7.6 or …

Sequence	binding signal [%]
AACUUUUAUUU [E. histolytica RabX13 intron BS probe (P+)]	50
UAUACUAACAA [yeast canonical BS probe (C+)]	50
